# Reference: the supplement of paper PMC10899765
# Legend:
# Details in all cases: 20 nM; 72 h
# MCF10A [1] = assay: percent viability (nuclei count relative to siNT); higher = more viable cells
# Procedure: (§1)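 After 72 h, cells were fixed and stained with Hoechst and anti-fibrillarin, and nucleoli per nucleus were counted with CellProfiler. Values are plate-adjusted percent effect for the one-nucleolus and 5+ nucleoli phenotypes, normalised to siNT (0%) and to the positive controls siNOL11 or siKIF11 (100%), as the mean of biological triplicates. Percent viability is the nuclei count relative to siNT.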
# MCF10A [2] = assay: one-nucleolus phenotype percent effect (relative to siNT 0% and siNOL11 100%); higher = more cells with one nucleolus (ribosome biogenesis inhibition)
# Procedure: as §1
# MCF10A [3] = assay: 5+ nucleoli phenotype percent effect (relative to siNT 0% and siKIF11 100%); higher = more cells with five or more nucleoli
# Procedure: as §1
sequence,measurement,setting,value
GACCGAGAGGGCCUCGGCUGU [hsa-miR-4523],percent viability,MCF10A [1],67.7%
same,one-nucleolus phenotype percent effect,MCF10A [2],-18%
same,5+ nucleoli phenotype percent effect,MCF10A [3],18.2%
AAAGAUCUGGAAGUGGGAGACA [hsa-miR-3156-5p],percent viability,MCF10A [1],43.6%
same,one-nucleolus phenotype percent effect,MCF10A [2],-18.8%
same,5+ nucleoli phenotype percent effect,MCF10A [3],45.1%
CCUGUUCUCCAUUACUUGGCUC [hsa-miR-26b-3p],percent viability,MCF10A [1],63.1%
same,one-nucleolus phenotype percent effect,MCF10A [2],7.43%
same,5+ nucleoli phenotype percent effect,MCF10A [3],-23.3%
GGGUGCGGGCCGGCGGGG [hsa-miR-4466],percent viability,MCF10A [1],51.3%
same,one-nucleolus phenotype percent effect,MCF10A [2],-13.2%
same,5+ nucleoli phenotype percent effect,MCF10A [3],12.7%
UGAGGUAGUAGAUUGUAUAGUU [hsa-let-7f-5p],percent viability,MCF10A [1],123%
same,one-nucleolus phenotype percent effect,MCF10A [2],-20.6%
same,5+ nucleoli phenotype percent effect,MCF10A [3],25.3%
UGAGGUGGUAGGAUGUAGA [hsa-miR-6134],percent viability,MCF10A [1],12%
same,one-nucleolus phenotype percent effect,MCF10A [2],40.7%
same,5+ nucleoli phenotype percent effect,MCF10A [3],-36%
AGCAGGUGCGGGGCGGCG [hsa-miR-3665],percent viability,MCF10A [1],33%
same,one-nucleolus phenotype percent effect,MCF10A [2],40.6%
same,5+ nucleoli phenotype percent effect,MCF10A [3],-20.8%
AAUCAUACAGGGACAUCCAGUU [hsa-miR-487a],percent viability,MCF10A [1],56%
same,one-nucleolus phenotype percent effect,MCF10A [2],-6.53%
same,5+ nucleoli phenotype percent effect,MCF10A [3],-7.13%
AUCCCUUGCAGGGGCUGUUGGGU [hsa-miR-623],percent viability,MCF10A [1],91.7%
same,one-nucleolus phenotype percent effect,MCF10A [2],-13.1%
same,5+ nucleoli phenotype percent effect,MCF10A [3],53.3%
UAAAUUUCACCUUUCUGAGAAGA [hsa-miR-513c-3p],percent viability,MCF10A [1],28.5%
same,one-nucleolus phenotype percent effect,MCF10A [2],15.7%
same,5+ nucleoli phenotype percent effect,MCF10A [3],-1.66%
UUUGGUCCCCUUCAACCAGCUG [hsa-miR-133a],percent viability,MCF10A [1],34.5%
same,one-nucleolus phenotype percent effect,MCF10A [2],20.5%
same,5+ nucleoli phenotype percent effect,MCF10A [3],-24.8%
CGUCCCACCCCCCACUCCUGU [hsa-miR-4433-5p],percent viability,MCF10A [1],40.9%
same,one-nucleolus phenotype percent effect,MCF10A [2],-1.75%
same,5+ nucleoli phenotype percent effect,MCF10A [3],25.6%
UUGCUAAGUAGGCUGAGAUUGA [hsa-miR-4639-5p],percent viability,MCF10A [1],22.7%
same,one-nucleolus phenotype percent effect,MCF10A [2],11.8%
same,5+ nucleoli phenotype percent effect,MCF10A [3],-11.6%
AGUGGAUGAUGGAGACUCGGUAC [hsa-miR-3691-5p],percent viability,MCF10A [1],13.1%
same,one-nucleolus phenotype percent effect,MCF10A [2],34.9%
same,5+ nucleoli phenotype percent effect,MCF10A [3],-12.7%
CCAGGAGGCGGAGGAGGUGGAG [hsa-miR-4459],percent viability,MCF10A [1],64.6%
same,one-nucleolus phenotype percent effect,MCF10A [2],9.39%
same,5+ nucleoli phenotype percent effect,MCF10A [3],-0.862%
CCUGACACCCCAUCUGCCCUCA [hsa-miR-6730-3p],percent viability,MCF10A [1],61.8%
same,one-nucleolus phenotype percent effect,MCF10A [2],26.8%
same,5+ nucleoli phenotype percent effect,MCF10A [3],-26.1%
UUGAACUGUUAAGAACCACUGGA [hsa-miR-203b-3p],percent viability,MCF10A [1],36.7%
same,one-nucleolus phenotype percent effect,MCF10A [2],29.5%
same,5+ nucleoli phenotype percent effect,MCF10A [3],-29.1%
ACCAGGAGGCUGAGGCCCCU [hsa-miR-665],percent viability,MCF10A [1],30.2%
same,one-nucleolus phenotype percent effect,MCF10A [2],40.7%
same,5+ nucleoli phenotype percent effect,MCF10A [3],-29.1%
GAAGCUCUCCCCUCCCCGCAG [hsa-miR-6796-3p],percent viability,MCF10A [1],103%
same,one-nucleolus phenotype percent effect,MCF10A [2],-14.7%
same,5+ nucleoli phenotype percent effect,MCF10A [3],5.79%
CCUCCCAUGCCAAGAACUCCC [hsa-miR-2116-3p],percent viability,MCF10A [1],95.6%
same,one-nucleolus phenotype percent effect,MCF10A [2],-24.7%
same,5+ nucleoli phenotype percent effect,MCF10A [3],58.4%
UCAAAAUCAGGAGUCGGGGCUU [hsa-miR-8063],percent viability,MCF10A [1],81.3%
same,one-nucleolus phenotype percent effect,MCF10A [2],-23.1%
same,5+ nucleoli phenotype percent effect,MCF10A [3],18.2%
GAGGCUGAAGGAAGAUGG [hsa-miR-4419b],percent viability,MCF10A [1],58.3%
same,one-nucleolus phenotype percent effect,MCF10A [2],21.1%
same,5+ nucleoli phenotype percent effect,MCF10A [3],-30.7%
UGACCCCCAUGUCGCCUCUGUAG [hsa-miR-6859-3p],percent viability,MCF10A [1],45%
same,one-nucleolus phenotype percent effect,MCF10A [2],2.24%
same,5+ nucleoli phenotype percent effect,MCF10A [3],-21.2%
AUUCCUAGAAAUUGUUCAUA [hsa-miR-384],percent viability,MCF10A [1],107%
same,one-nucleolus phenotype percent effect,MCF10A [2],-8.73%
same,5+ nucleoli phenotype percent effect,MCF10A [3],23.8%
AAAUGUCACCUUUUUGAGAGGA [hsa-miR-513b-3p],percent viability,MCF10A [1],94.2%
same,one-nucleolus phenotype percent effect,MCF10A [2],-7.38%
same,5+ nucleoli phenotype percent effect,MCF10A [3],-25.5%
UGUGGGACUGCAAAUGGGAG [hsa-miR-4648],percent viability,MCF10A [1],41.5%
same,one-nucleolus phenotype percent effect,MCF10A [2],19.7%
same,5+ nucleoli phenotype percent effect,MCF10A [3],-30.5%
CCUCCCUGCCCGCCUCUCUGCAG [hsa-miR-7113-3p],percent viability,MCF10A [1],70.5%
same,one-nucleolus phenotype percent effect,MCF10A [2],-20.6%
same,5+ nucleoli phenotype percent effect,MCF10A [3],57.3%
CUCUAGAGGGAAGCACUUUCUG [hsa-miR-520c-5p],percent viability,MCF10A [1],82.7%
same,one-nucleolus phenotype percent effect,MCF10A [2],-6.38%
same,5+ nucleoli phenotype percent effect,MCF10A [3],17.5%
GAAAGUAAUUGCUGUUUUUGCC [hsa-miR-548aq-5p],percent viability,MCF10A [1],118%
same,one-nucleolus phenotype percent effect,MCF10A [2],-13.4%
same,5+ nucleoli phenotype percent effect,MCF10A [3],16.5%
UCCUGUACUGAGCUGCCCCGAG [hsa-miR-486-5p],percent viability,MCF10A [1],41.3%
same,one-nucleolus phenotype percent effect,MCF10A [2],4.53%
same,5+ nucleoli phenotype percent effect,MCF10A [3],1.79%
CUGCAGACUCGACCUCCCAGGC [hsa-miR-1273h-3p],percent viability,MCF10A [1],41.7%
same,one-nucleolus phenotype percent effect,MCF10A [2],13.6%
same,5+ nucleoli phenotype percent effect,MCF10A [3],-28.5%
UCGGGCGCAAGAGCACUGCAGU [hsa-miR-6499-5p],percent viability,MCF10A [1],43.5%
same,one-nucleolus phenotype percent effect,MCF10A [2],0.719%
same,5+ nucleoli phenotype percent effect,MCF10A [3],-9.6%
CAAAGUGCUGUUCGUGCAGGUAG [hsa-miR-93-5p],percent viability,MCF10A [1],64.1%
same,one-nucleolus phenotype percent effect,MCF10A [2],-18.1%
same,5+ nucleoli phenotype percent effect,MCF10A [3],59.5%
GCAGUAGUGUAGAGAUUGGUUU [hsa-miR-3129-5p],percent viability,MCF10A [1],40.7%
same,one-nucleolus phenotype percent effect,MCF10A [2],-15%
same,5+ nucleoli phenotype percent effect,MCF10A [3],12.6%
UUCUUUGUUUUUAAUUCACAG [hsa-miR-6844],percent viability,MCF10A [1],70%
same,one-nucleolus phenotype percent effect,MCF10A [2],-15.7%
same,5+ nucleoli phenotype percent effect,MCF10A [3],8.6%
AGGUAGACUGGGAUUUGUUGUU [hsa-miR-3529-5p],percent viability,MCF10A [1],21.7%
same,one-nucleolus phenotype percent effect,MCF10A [2],27.4%
same,5+ nucleoli phenotype percent effect,MCF10A [3],-26.7%
GGCUGGAGCGAGUGCAGUGGUG [hsa-miR-3135b],percent viability,MCF10A [1],43.2%
same,one-nucleolus phenotype percent effect,MCF10A [2],9.78%
same,5+ nucleoli phenotype percent effect,MCF10A [3],-9.26%
ACAAAGUGCUUCCCUUUAGAGUGU [hsa-miR-520g],percent viability,MCF10A [1],77.4%
same,one-nucleolus phenotype percent effect,MCF10A [2],-7.99%
same,5+ nucleoli phenotype percent effect,MCF10A [3],24.4%
CCUGGUGGCUUCCUUUU [hsa-miR-4456],percent viability,MCF10A [1],23.6%
same,one-nucleolus phenotype percent effect,MCF10A [2],6.37%
same,5+ nucleoli phenotype percent effect,MCF10A [3],-4.84%
UCUCCCUUCCUGCCCUGGCUAG [hsa-miR-4685-3p],percent viability,MCF10A [1],98.4%
same,one-nucleolus phenotype percent effect,MCF10A [2],-25.3%
same,5+ nucleoli phenotype percent effect,MCF10A [3],29.5%
CGGGCGUGGUGGUGGGGGUG [hsa-miR-1268b],percent viability,MCF10A [1],36.5%
same,one-nucleolus phenotype percent effect,MCF10A [2],8.5%
same,5+ nucleoli phenotype percent effect,MCF10A [3],35.6%
CAGAGUGACAAGCUGGUUAAAG [hsa-miR-5586-3p],percent viability,MCF10A [1],98.4%
same,one-nucleolus phenotype percent effect,MCF10A [2],-14.6%
same,5+ nucleoli phenotype percent effect,MCF10A [3],27.8%
AUGGUUCCGUCAAGCACCAUGG [hsa-miR-218-1-3p],percent viability,MCF10A [1],51%
same,one-nucleolus phenotype percent effect,MCF10A [2],11.8%
same,5+ nucleoli phenotype percent effect,MCF10A [3],4.75%
AAGUCCUGCUUCUGUUGCAG [hsa-miR-6838-3p],percent viability,MCF10A [1],56.4%
same,one-nucleolus phenotype percent effect,MCF10A [2],-6.74%
same,5+ nucleoli phenotype percent effect,MCF10A [3],-28.6%
UUGCCAUACAUAGACUUUAUU [hsa-miR-5590-5p],percent viability,MCF10A [1],44.8%
same,one-nucleolus phenotype percent effect,MCF10A [2],33.6%
same,5+ nucleoli phenotype percent effect,MCF10A [3],-33.2%
CGCCGCGCGCAUCGGCUCAGC [hsa-miR-6869-3p],percent viability,MCF10A [1],28.8%
same,one-nucleolus phenotype percent effect,MCF10A [2],4.08%
same,5+ nucleoli phenotype percent effect,MCF10A [3],-29.2%
AGGCAGGUUAUCUGGGCUG [hsa-miR-4736],percent viability,MCF10A [1],12%
same,one-nucleolus phenotype percent effect,MCF10A [2],19.8%
same,5+ nucleoli phenotype percent effect,MCF10A [3],13.2%
CCAAUUACCACUUCUUU [hsa-miR-4275],percent viability,MCF10A [1],74.6%
same,one-nucleolus phenotype percent effect,MCF10A [2],-17.6%
same,5+ nucleoli phenotype percent effect,MCF10A [3],23.8%
